Where “and” joins values, the source holds several entries; their conditions need not be identical. Equal values may be shown once.
B1: recombinant human IL4 (non-glycosylated, produced in E. coli) (ligand, UniProt P05112 25-153, looked up)
chain: HKCDITLQEIIKTLNSLTEQKTLCTELTVTDIFAASKNTTEKETFCRAATVLRQFYSHHEKDTRCLGATAQQFHRHKQLIRFLKRLDRNLWGLAGLNSCPVKEANQSTLENFLERLKTIMREKYSKCSS
notes: also called hIL4; hIL-4

What was measured:
[1] = biological target: T1, IL4 receptor on the gibbon cell line MLA [ATCC TIB201] (gibbon); assay: displacement of 125I-rhIL4 (83 pM) from gibbon MLA cells
T1 construct: whole, on cells; also called its receptor
Description: The ability of 3B9 to inhibit the binding of IL4 to its receptor was studied using ¹²⁵I-rhIL4 binding to the gibbon cell line, MLA [ATCC TIB201], that bears approximately 6000 receptors per cell. MLA cells were incubated with […] for 30 minutes at 37° C. Uptake of radioactivity was determined in a gamma counter after separation of cell bound ¹²⁵I-IL4 by centrifugation through an oil-gradient. Non-specific binding was determined by incubating in the presence of a 100-fold molar excess of unlabelled IL4 [Park et al, J. Exp. Med., 166:476-488 (1987)]. The IC₅₀ value for unlabeled IL4 in this assay was 22 pM when the amount of (added) IL4 was 83 pM. For intact murine (IgG) 3B9 the IC₅₀ was 63 pM, and 93 pM for the Fab fragment.

[2] = biological target: B1; assay: cell-based or functional assay
[3] = biological target: B1; assay: titration microcalorimetry, calculated for pH 7.4, 150 mM NaCl, 25° C. by the Gibbs-Helmholz equation
Description: (§1) The affinity and detailed thermodynamics of IL4 binding to humanized MAb 3B9 and murine 3B9 (Example 1) were determined by titration microcalorimetry.

[4] = biological target: B1; assay: titration microcalorimetry, pH 7.4, 150 mM NaCl, 25° C.
Description: as §1

## B1
[1]
  IC50: 22 pM

B2: humanized 3B9 (IgG4 variant) (antibody, V domains shown)
VH: QVTLRESGPALVKPTQTLTLTCTFSGFSLSTSGMGVSWIRQPPGKGLEWLAHIYWDDDKRYNPSLKSRLTISKDTSRNQVVLTMTNMDPVDTATYYCARRETVFYWYFDVWGRGTPVTVSS
VL: IVMTQSPDSLAVSLGERATINCKASQSVDYDGDSYMNWYQQKPGQPPKLLIYAASNLESGVPDRFSGSGSGTDFTLTISSLQAEDVAVYYCQQSNEDPPRFGGGTKVEIKR
[2]
  IC50, B cell proliferation: 79 pM
  IC50, IgE synthesis: 406 pM
  IC50, T cell proliferation: 40 pM

B3: humanized 3B9 (IgG1) (antibody, V domains shown)
VH: QVTLRESGPALVKPTQTLTLTCTFSGFSLSTSGMGVSWIRQPPGKGLEWLAHIYWDDDKRYNPSLKSRLTISKDTSRNQVVLTMTNMDPVDTATYYCARRETVFYWYFDVWGRGTPVTVSS
VL: IVMTQSPDSLAVSLGERATINCKASQSVDYDGDSYMNWYQQKPGQPPKLLIYAASNLESGVPDRFSGSGSGTDFTLTISSLQAEDVAVYYCQQSNEDPPRFGGGTKVEIKR
notes: Human IgG1 heavy constant region and human kappa constant region; also called humanized MAb 3B9; 3B9 (Humanized)
[2]
  IC50, CD23 induction: 333 pM
  IC50, IgE synthesis: 54 pM and 35 pM and 83 pM
  IC50, T cell proliferation: 44 pM and 30 pM and 56 pM
[3]
  Kd: 11 pM
[4]
  -TΔS: 8.2 kcal/mol IL4
  ΔG: -13.6 kcal/mol IL4
  ΔH: -21.8 kcal/mol IL4
